Patent US20210252069A1 (published 2021)

B1: CAR-containing polypeptide #12 (IL13Rα2-specific chimeric antigen receptor with human IL13.E11K.R64D.S67D.R107K binding domain, 4-1BB, IL-2Rβ part, mutant CD3ζ) (receptor)
chain: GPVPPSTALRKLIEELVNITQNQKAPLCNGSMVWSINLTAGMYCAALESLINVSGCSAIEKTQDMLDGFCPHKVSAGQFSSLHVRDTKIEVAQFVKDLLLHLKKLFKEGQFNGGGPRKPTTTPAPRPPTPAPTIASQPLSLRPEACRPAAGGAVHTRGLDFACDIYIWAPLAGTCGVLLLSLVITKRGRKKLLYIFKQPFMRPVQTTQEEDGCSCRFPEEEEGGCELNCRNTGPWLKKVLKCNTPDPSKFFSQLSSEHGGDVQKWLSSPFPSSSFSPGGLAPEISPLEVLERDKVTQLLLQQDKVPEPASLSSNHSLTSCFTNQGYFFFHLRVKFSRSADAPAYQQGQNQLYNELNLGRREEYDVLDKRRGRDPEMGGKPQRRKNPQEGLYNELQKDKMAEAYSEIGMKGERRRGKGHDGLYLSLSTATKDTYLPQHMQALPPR
notes: Expressed on human T cells; also called CAR-T #12; PG13/#12
B2: CAR-containing polypeptide #6 (IL13Rα2-specific chimeric antigen receptor with human IL13.E11K.R64D.S67D.R107K binding domain, 4-1BB, IL-7Rα part, mutant CD3ζ) (receptor)
chain: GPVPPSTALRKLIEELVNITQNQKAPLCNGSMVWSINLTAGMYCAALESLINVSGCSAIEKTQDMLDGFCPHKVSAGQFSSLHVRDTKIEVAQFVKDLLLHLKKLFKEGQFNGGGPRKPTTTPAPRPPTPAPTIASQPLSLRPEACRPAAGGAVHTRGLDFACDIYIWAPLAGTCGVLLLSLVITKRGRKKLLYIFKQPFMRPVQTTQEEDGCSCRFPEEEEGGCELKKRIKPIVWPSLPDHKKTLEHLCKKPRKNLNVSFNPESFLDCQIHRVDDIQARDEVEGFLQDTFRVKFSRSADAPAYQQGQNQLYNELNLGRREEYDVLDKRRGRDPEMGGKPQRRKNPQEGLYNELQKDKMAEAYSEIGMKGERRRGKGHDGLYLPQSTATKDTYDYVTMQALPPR
notes: Expressed on human T cells; also called CAR-T #6; PG13/#6

Molecular target: T1, IL13Rα2 (human, UniProt Q14627 27-380)
T1 construct: whole, on cells; Endogenous target on U87 cells; also called IL-13Ra2; IL13Ra2
T1 sequence (looked up): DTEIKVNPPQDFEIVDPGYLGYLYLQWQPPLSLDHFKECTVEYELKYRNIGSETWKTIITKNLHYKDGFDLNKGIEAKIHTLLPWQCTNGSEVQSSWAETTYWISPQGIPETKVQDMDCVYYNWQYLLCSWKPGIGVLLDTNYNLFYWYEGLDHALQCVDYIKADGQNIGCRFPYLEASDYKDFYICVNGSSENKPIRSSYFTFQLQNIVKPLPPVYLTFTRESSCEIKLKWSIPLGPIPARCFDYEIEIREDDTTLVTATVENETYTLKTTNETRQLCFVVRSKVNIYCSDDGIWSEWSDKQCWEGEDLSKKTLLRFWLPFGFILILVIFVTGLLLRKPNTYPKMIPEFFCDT
Experiment: inferred by the filing from LDH cytotoxicity of CAR-T cells on U87 (IL13Rα2+) versus 293FT (IL13Rα2-) cells
Method: In order to measure the cytotoxicity of IL13Rα2-specific CAR-T cells prepared in Example 2 (#1, #2, #5, #6, #7, #8, #11, or #12), cytotoxicity assay was performed using an LDH (Promega) kit. Specifically, CAR-T cells (effector cells) were used 10 days after activation of the cells with an anti-CD3 Ab, and the CAR-T cells (having a CAR expression rate of 20% to 40%) were added to a 6-well plate at a ratio 1:2, in which effector:target was 1×10⁶ cells:2×10⁶ cells and reacted at 37° C. for 24 hours.
An analysis was performed to examine whether IL13Rα2-specific CAR-T cells prepared in the present invention can effectively kill the target cancer cells (U87 expressing IL13Rα2).

| Binder | binding result |
| --- | --- |
| B1 | binds |
| B2 | binds |
